Reference: patent US20260116963A1

Legend:
[1] = biological target: HIS-tagged human FcRn (human) (UniProt P55899); test: SPR (Biacore 8K+), antibody captured on anti-human Fab CM4 chip, HIS-tagged human FcRn 9.8-5000 nM as analyte, pH 6.0, 25 C, steady-state fit
[2] = biological target: HIS-tagged human IL-13 (human) (UniProt P35225); test: BLI in-tandem epitope binning (Octet RH96): HIS-tagged human IL-13 on anti-penta-HIS biosensors, saturated with 200 nM AbG, then 200 nM isotype-hIgG1-YTE as competing antibody; shaded cell (non-binding, <=0.1 nm)
Chain of HIS-tagged human IL-13 (human) (P35225 other isoform, or with tags, fused parts or gaps limits assumed): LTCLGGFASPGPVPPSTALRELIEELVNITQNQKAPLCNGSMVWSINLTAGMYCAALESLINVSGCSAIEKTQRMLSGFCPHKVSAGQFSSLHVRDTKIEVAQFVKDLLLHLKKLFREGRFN

[3] = biological target: HIS-tagged human IL-13 (human) (UniProt P35225); test: BLI in-tandem epitope binning (Octet RH96): HIS-tagged human IL-13 on anti-penta-HIS biosensors, saturated with 200 nM Ref1, then 200 nM isotype-hIgG1-YTE as competing antibody; shaded cell (non-binding, <=0.1 nm)
[4] = biological target: HIS-tagged human IL-13 (human) (UniProt P35225); test: BLI in-tandem epitope binning (Octet RH96): HIS-tagged human IL-13 on anti-penta-HIS biosensors, saturated with 200 nM tralokinumab-hIgG1-YTE, then 200 nM isotype-hIgG1-YTE as competing antibody; shaded cell (non-binding, <=0.1 nm)
[5] = biological target: HIS-tagged human IL-13 (human) (UniProt P35225); test: BLI in-tandem epitope binning (Octet RH96): HIS-tagged human IL-13 on anti-penta-HIS biosensors, first exposed to 200 nM isotype-hIgG1-YTE as saturating antibody, then 200 nM isotype-hIgG1-YTE as competing antibody; shaded cell (non-binding, <=0.1 nm)

Chain of HIS-tagged human FcRn (human) (P55899 24-297 limits assumed, chain 1 of 2): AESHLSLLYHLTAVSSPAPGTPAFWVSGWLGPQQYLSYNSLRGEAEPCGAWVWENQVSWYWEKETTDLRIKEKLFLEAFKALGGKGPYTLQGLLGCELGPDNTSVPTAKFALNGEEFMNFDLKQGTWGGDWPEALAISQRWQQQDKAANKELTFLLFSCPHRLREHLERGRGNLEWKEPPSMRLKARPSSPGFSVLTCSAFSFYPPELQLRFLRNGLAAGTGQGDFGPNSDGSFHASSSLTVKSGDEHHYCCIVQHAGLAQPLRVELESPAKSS
Chain of HIS-tagged human FcRn (human) (chain, as listed by the source limits assumed, chain 2 of 2): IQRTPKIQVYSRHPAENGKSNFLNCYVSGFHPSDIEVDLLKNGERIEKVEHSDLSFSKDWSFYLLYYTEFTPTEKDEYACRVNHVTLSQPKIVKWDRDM

Substance	Kd [1]	BLI response of the competing antibody [2]	BLI response of the competing antibody [3]	BLI response of the competing antibody [4]	BLI response of the competing antibody [5]
isotype-hIgG1 (antibody)	1160 nM				
isotype-hIgG1-YTE (antibody)	155 nM	-0.018 nm	-0.036 nm	-0.023 nm	0 nm
isotype-hIgG1-YTE-TM (antibody)	156 nM				
isotype-hIgG4 (antibody)	1190 nM				
